Experiment: yeast display, Sf9 membrane polyspecificity reagent, FACS + sequencing; frameworks hold sequencing errors
Procedure, shortened: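 Polyreactivity labels are assigned by the sorting gate from which each nanobody was recovered. The gates were low and high (top ~1%), set on anti-HA fluorescence for expression and streptavidin fluorescence for reagent binding. Before sorting, galactose-induced (36–48 hours) yeast display cells were stained for 1 hour at 4 °C with 10% biotinylated, detergent-solubilized Sf9 membrane reagent.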

Row | Sequence | polyreactivity (PSR sort gate)
1 | QVQLVESGGGLVQAGGSLRLSCAASGNIFGGNAMGWYRQAPGKERELVAAMTRGGSTYYADSVKGRFTISRDNAKNTVYLQMNSLKPEATAVYYCAKSYRLRSDYDYWGQGTQVTVSS | low polyreactivity
2 | QVQIVESGGGLVQAGGRLRLSCSASGSIFDWYDMGWYRQAPGKERELVAAITTGGITNYADSVKGRFTLSRDNAKNTVYLQMNSLKPEDTAVYYCAADSLGVYDGDYWGQGTQVTVSS | low polyreactivity
3 | QVQLVESGGGLVQAGGSLRLSCAASGITFYGYDKGWYRQAPGKERELGAAITSDGITNYADSVKGRFTISRDNAKNTVYLQMNSLKPEDTAVYYCAADLSFYRRYEWYYYWGQGTQVTVSS | low polyreactivity
4 | QVQLVESGGGLVQAGGSLRLSCAASGRTFPGYAMGCYRQAPGKERELVATITFSDGSTYYADSVKGRFTISRDNAKITVYLQMNSLKPEDTAVYYCNARRSYFLRYGVNYWGQGTQVTVST | low polyreactivity
5 | QFQLVESGGGLVQAGGSLLLSCAASGSIFAPYDMGWYRQEPGKERELVAAISSSGGSTYYEDSVKGRFTISRDNSKNTVYLHMNSQKPEDTAVYYCDPEPYHGLYDYSGQGTQVTVSS | low polyreactivity
6 | QVQLVESGGGLVQAGGSHRLSCAASGSIFLFNAMGWYRQAPGKERELVAAITSPTARTYYADSVKGRFTISRDIAKNTVYLQMNSLKPEDTAVYYCAARYRYAYGYGRGYSWGQGTQVTVSS | high polyreactivity
7 | QVQLVESGGGLVQAGGSLRLSCAASGSIFLAYAMGWYRQAPGKERELVADISYSGGRTYYADSVMGRFTISRDNAKNTVYLQMNSLIPEDTAVYYCAADPWHDTDQHGNDYWGQGSQVTVSS | low polyreactivity
8 | QVQLVESGGGLVQAGGILRLSCAASGNIFDRYAMGWYSQAPGKERELVAGMTWSGGSTYYADSVKWRFTISRDNAKNTVYLQMNSLKPEDTAVYYCGQANYYWGQGTQVTVSS | low polyreactivity
9 | QVQLVESGGGLVQAGGSLRLSCAASGRIFTQYAMGWYRQAPGKERELVAAINASDGSTYADSVKGRFTISRDNAKNTVYLQMNSLKPEDSAVYFCYVTGGPYDFTRWSEFDHWGQGTQVTVSS | low polyreactivity
10 | QDQLVESGGGLVQAGGRLRLSCAASGSTFLRYAMGWYRQAPGKERELVAAINLSGDRTYYADSVKGRFTISRDKAKNTFYLQMHSLKPEDTAVYYCAARWWGPSYDAYDYWGQGTQVTVSS | low polyreactivity
11 | QVQLQESGGGLVQAGGSLRLICAASGTIFRFRYMGWHRQAPGKERELVAGINGGTTTYYADSVIGRFTISRDNAKNTVYVQMNSLKPDDTAVYNCAAGASRLTYYDYWGHGTQVTVSS | low polyreactivity
12 | QVQLVESGGGLVQAGGSLRLSCSASGRTFHYYAMGWYRQAPGKERELVAVIRYSGGRTYYADSVKGRFTISRDNAKNTVYLQMNSLKPEDTAVYYCNKGRWRTDQPVYLIAFDYWGQGTQVTVTS | low polyreactivity
13 | QVQLQESGGGLVQAGGSLRLSCAASGSISHYIFMGWYRQAPGKEREFVAGIGYGGTTNYADSVKGRFTISRDNAKNTVYLQMNSLKPEDTAVYYCAAVSIYWGQGTQVTVSS | low polyreactivity
14 | QVQLVESGGGLVQAGGSLRLSCAASGSTFYKYDMGWYRQAPGKEREFVAVISWSGGNTYYADSVKGRFTISRDNAKNNVYLQMNSLKPEDTAVYYCAADNYPDEYDYWGQGTQVTVSS | low polyreactivity
15 | QVQLVESGGGLVQAGGSLRLRCAASGITFRYYAMGWYRQAPGQERELVAAITRSGSTTYADSVKGRFTISRDNAKNTVYLQLNSLKPEDTAVYYCAVDYYYLTGGVDYWGQGTQVTVSS | low polyreactivity
16 | QVQLVESGGGLVQEVGSLRLSCAASGSTIYWYAMGWSRQAPGKEMEIVAAISLGSGSTYYADSVKGRFTISRDNAKNTVYLQMNSLKPEDTAVYYCATRGSAWGRSYYYWGQGTQVTVSS | high polyreactivity
17 | QVQLVESGGGLVQAGGSLRLSCAASGYTFGSNVMGWYRQAPGKERELVAAITFSGGSTYYADSVKRRFTISRDNAKNTVFLLMIRLKPEDTAVYYCAVRYVRYYAWYYYWGQGTQVTVSS | high polyreactivity
18 | QVQLVESGGGLVQVGCSLRLSCAASGFTFYNNVMGWYRQAPGKERELVAAITSTGSTSYADSVKGRFTISRDNAKNTVYLQMNSLKPEDTAVVYCARAYYYLLGGHYRHKYYWGQGTQVTVSS | high polyreactivity
19 | QVQLVESGGGLVQAGGSLRISCAASGYIFKYAMGWYRQAPGKERELVAAISRRGGSTYYADSVKGRFTISRDNAKNTVYLQMNSLKPEDTEVYYCAARLPGYYGIGDYWGQGTQVTVSS | high polyreactivity
20 | QVQLVESGGGLVQAGGSLRLSCAASGRTFLFNGMGWYRQAPGKERELVASITRGGSTYADSVKGRFTISRDNAKNTGYVQMNSLNPEDTAVYDCNAYFWFPYNYWGQGTQVTVSS | high polyreactivity
21 | QVHLVESGGGLVQAGGSLRLSCAASGRTFGINAMGWNRQAPGKERELVAVISFGDGGTYYADSVKGRFTISRDNAKNTVYLQMNSLKPEDTAVYYCATDYQSTSVWGGHFVINPYDYWGQGTQVTVSS | low polyreactivity
22 | QVQLVESGGGLVQAGGSLRLSCAASGVIFGAYAMGWYRQAPGKERELVAAISSRGTSTYYADSVKGRFTISRDNAKNTVYLQMNSLKPEDTAVYYCNVYYIPLRRYDYWGQGTQVTVSS | high polyreactivity

Row | Sequence | polyreactivity (PSR sort gate)
23 | QDQLVESGVGLDQAGGSLRLSCAASGRIFRGSAMGWFSQAPGKEREFVAAITKNGGSTYYADSVNARFTISRDNANNTVYVQMNSLKPEDTAVYDCAVRAWDPDTGNSDYWGQGTQGTVSS | low polyreactivity
24 | QVQLVESGGGLVQAGGSLRLSCAASGRIFTRYAMGWYRQAPGKERELVAAINYRGSSTYYADSVKGRFTISRDNAKKTVYLQMNSLTPEDTAVYYCNTYGQTDTYWRYYYWGQGTQVTVSS | high polyreactivity
25 | QVQLVESGGGLVPAGGSLRLSCAASGSTFTQNARGWYRQAPGKERELVAAISWSGARTYYADSVKGRFTISPDNANNTVYLQMNSLKPEDTAVYYCNNYARKRGTTNDYWGQGTQVTVSS | high polyreactivity
26 | QVQLVESGGGLVQAGGSLRLSCAASGRTFSSNAKGWYRQAPGKERELVASISFRGGRTYYADSVKGRFTISRDNAKNTVYLQMNSLKPEDTAVYYCVSGTIRTGYGYWGQGTQVTVSS | high polyreactivity
27 | QVQLVESGGGLVQAVGSLRLSCAASGFIFVGYAMGWYRQAPGKERELVAAITGGGTTYYADSVKGRFTISRDNAKNSVYLQMNSLKPEETAVYYCAKDRPRKDTQRWRYGHWGQGTQVTVSS | high polyreactivity
28 | QVQLVESGGGLVQAGGSLRLSCAASGRIFRAYAMGWYRQAPGKERELVAAITSGVSTNYADSVKGRFTISRDNAKNTVYLQMNSLKAEDTAVYYCAADIYVIYEYWGQGTQVTVSS | low polyreactivity
29 | QVQLVESGGGLVQAGGSLRLSCAASGFTLFDYAMGWYRQAPGKERELVAAITTSGGSTYYADSVKGRFTISRDNAKNTVYLQMNSLKPEDTAVYYCAVEYMLTYYYYVSYEYYYWGQGTQVTVSS | high polyreactivity
30 | QVQLVESGGGLVQAGGSLRLICAASGSIFFSYAMGWYRQAPGKERELVAAIDYSGGGTYYADSVMGRFTISRDNAKNTVYLQMNSLKPEDTAVYYCNSDTEVWADTFISYRALNYWGQGTQVTVSS | low polyreactivity
31 | QVQLVESGGGLVQAGGSLRLSCATSGSIFVFNAMGWYRQAPGKERELVAAIDTSDDITYYADSVKGRFTISRDNAKNTVYLQMNSLKPEDTAVYYCNAYYTYRFNYWGQGTQVTVSS | high polyreactivity
32 | QVQLVESGGGLVQAGGSLRLSCAASGSIFTKYAMGWYRQAPGKERELVAAISSSGGSTYYADSVKGRFTISRDNAKNTVYLQMNSLKPEDTAVYYCAAEAVYYRSWRYYYWGQGTQVTVSS | high polyreactivity
33 | QVQLVESGGGLVQAGGSLRLSCAASGRTFFKYVMGWYRQAPGKERELVAAISSGGSTNYADSVKGRFTISRDNAKNTVYLQMNSLKPEDTAVYYCATYDPARSTQGYDYWGQGTQVTVSS | high polyreactivity
34 | QVQLVESGGGLVQAGGSLRLSCAASGSIFLSYAMGSYREAPGKERELVATITAGGGSTNYADSVKGRFTISRDNAKNTVYLQMNSLKPEDTAVYYCAAKRLSWHGYGYWGQGTQVTVSS | low polyreactivity
35 | QVQLVESGGGLVQAGGSLRLSCAASGSTFRVYAMGWYRQAPGNERELVAAISLSGGRTYYADSVKGRFTISRDNAKNTVYLQMNSLKPEDTAVYYCARRYRDYGRYGYWGQGTQVTVSS | high polyreactivity
36 | QVQLVESGGGLVQAGGSLRLSCAASGFIFRYNAMGWYRQAPGKERELVAAISSSGTTNYADSVKGRFTISRDNAKNTVYLQMNSLKPEDTAVYYCAADRRDRSPYYYWGQGTQVTVSS | high polyreactivity
37 | QVQLVESGGGLVQAGGSLRLSCAASGITFYRYTMGWYRQAPGKERELVATITSGASTSYADSVKGRFTISRDNAKNTVYLQMNSLKPEDTAVYYCAARRTRVTGRYSVYAFDYWGQGTQVTVSS | low polyreactivity
38 | QVQLVESGGGLVQAGGSLRLSCAASGRTFLWYDMGWYRQAPGKERELVAGITSDGITYYADSVKGRFTISRDNAKNTVNLQMNSLKPEDTAVYYCAADGIYPDAVYFGYPMYYWGQGTQVTVSS | low polyreactivity
39 | QVQLVESGGGLVQAGGSLRLSCAASGRTFGTNAMGWYRHAPGKERELVAANSRRGGSTYYAESVKGRFTISRDNEKNTVYLQMNSLKPEDTAVYYCAKTIGLKHEDEYWGQGTQVTVSS | low polyreactivity
40 | QVQLVESGGGLVQAGGSLRLSCAASGFIFWPYVMGWYRQEPGTDRELVAAISLGDGSTYYADSVKGRFRLSRDHAKNTVYLQMNSLKPEDTAVYYCAADVTVAWYPVYPGFYYWGQGTQVTVSS | low polyreactivity
41 | QVQLVESGGGLVQAGGSLRLSCAASGFTFSSYAMGWYRQEPGKERELVAAISTSGASTYYADSVKGRFTISRDNAKNTVYLQMNSLKPEDTAVYYCNVPQWHRWYRYPGEDYDYWGQGTQVTVSS | high polyreactivity
42 | QVQLVESGGGLVKEGGSLRLSCAASGSIFLQYAMGWYRQAPGKERELVAGISLRGCSTYYADSVKGRFTISRHNAKNTVYLQLNSLKPEDTAVYYCAADVIVTVETYTSGPSFTEYDYWGQGTQVTVSS | low polyreactivity
43 | QVQLVESGGGLVQAGGSLRLSCAASGRTLIAYAMGWYRQAHGKEREFVAAIRADDGRTYYADSVKGRFTISRDNAKNTVYFQMNSLKPEDTAVYYCDTKADKRYRFGYWGQGTQVTVSS | high polyreactivity
